Molecular target: the molecule itself
Experiment: crystal structure

B1: Mycobacterium tuberculosis PanD (aspartate decarboxylase), wild type, processed active enzyme (enzyme)
chain 1: MLRTMLKSKIHRATVTCADLHYVG
chain 2: SVTIDADLMDAADLLEGEQVTIVDIDNGARLVTYAITGERGSGVIGINGAAAHLVHPGDLVILIAYATMDDARARTYQPRIVFVDAYNKPIDMGHDPAFVPENAGELLDPRLGVG
notes: also called Mtb PanD; Rv3601c; copies: 4 + 4
- stoichiometry N: 4

— PMC6969166, “The molecular basis of pyrazinamide activity on Mycobacterium tuberculosis PanD” (Nature Communications, 2020)
